Laboratory results as given in the supplement of paper PMC12042874.
± gives the uncertainty stated by the source.

assay: amyloid nucleation score (Sup35N fusion, yeast selection) (log enrichment); library NNK1; higher = more nucleation; inactive = no reads after selection
In short: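 Peptides of 20 random codons fused to Sup35N were expressed in psi-negative yeast, induced 24 hours with 100 μM copper sulfate, then grown 7 days at 30°C on medium lacking adenine and uracil. Input and output plasmid inserts were Illumina-sequenced. Nucleation score is the DiMSum log enrichment of output over input reads, centred on the mode score of non-aggregating sequences, excluding sequences with under 100 input reads. Random libraries had three technical output replicates.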

Point of comparison: RAGTFTVSTQGPS, amyloid nucleation score 0.268 ± 0.28. Against it:
- QSFSKKEESYILYITRVHEP — within error, 0.88 ± 0.69
- QSFSSSMHHDHDNWDQCCES — within error, 0.522 ± 0.59
- QTDLLYSIYRSKDNSGLNLV — within error, 0.75 ± 0.56
- QTHEYGLPRMIR — within error, 0.884 ± 0.69
- QTLDRNNARSSDNGCSVGGA — within error, -0.476 ± 1.9
- QVLSHSKHNIVLDYHLETCG — higher, 1.84 ± 0.38
- QVRCAFVIRRSV — within error, 0.143 ± 0.64
- QVRGTEVPVSIAVGLGTSRL — within error, 1.05 ± 0.66
- QVTRDGSYVGCGGGRRREMC — within error, -0.359 ± 1.9
- QVVPC — within error, -0.153 ± 0.66
- QWRSFYTAWVAYRDECPGGF — higher, 2.44 ± 0.15
- QWVSMTEVYFVVNKRWMCSR — within error, -1.39 ± 1.6
- QYFKNDVKYVPFG — within error, -0.514 ± 1.1
- QYMLFMYLGVVLKCH — within error, 0.644 ± 0.59
- QYRGDIYKISG — higher, 1.29 ± 0.56
- QYRRVSILSSVLLYCPNYCQ — within error, -1.38 ± 2.7
- QYSCGSYYLERSGNVSRRKS — within error, -0.084 ± 1.6
- QYSCN — higher, 1.72 ± 0.46
- QYSVHINNVTLRPKHRYVQ — within error, -0.065 ± 0.29
- QYTYFMSGDWSNGRVSLVKK — higher, 2.96 ± 0.099
- QYVPNETVDI — higher, 1.4 ± 0.25
- RACLQFRQLVGDRLG — higher, 1.52 ± 0.73
- RALAVSRMRAYPSLRGEYLN — within error, 0.076 ± 1.2
- RALRGSECGMNRRPLRGCVK — within error, -0.167 ± 0.22
- RAMKWLYVSNNDNMRKHFFS — lower, -0.712 ± 0.42
- RARQNAFREW — within error, -0.301 ± 0.35
- RASILCA — the same, 0.268 ± 0.66
- RASSFAEIPVVSCDGGLVKW — within error, -0.129 ± 0.41
- RASTNLRSEIDVNNRGWLRW — higher, 1.32 ± 0.42
- RCELMNIEFWVKHYGSSSGF — higher, 1.64 ± 0.18
- RCGCERTYSFR — within error, -0.027 ± 0.72
- RCGRAINGVQCVHWFVMSEG — within error, 0.429 ± 0.58
- RCLIDCD — within error, 0.157 ± 0.52
- RCSLPLWFQYYGAMTVHGTV — within error, 0.61 ± 0.35
- RCVETSFTSGFIVGELLMRM — within error, -0.84 ± 1.3
- RCVMFQVRHSNIGRKRDYGI — within error, 0.389 ± 1.2
- RCWRSLPRLLRQFMDSSRTI — within error, -0.27 ± 0.61
- RDFYNCS — within error, 0.166 ± 0.26
- RDMVKLHVHTLHCNDDILGL — lower, -0.896 ± 0.62
- RDNCSLNVYFK — higher, 2.9 ± 0.14
- RDNKLSVAVVMQSYSVGESG — within error, -0.034 ± 0.89
- RDPRAMQLKSRLGMWKNQWY — within error, 0.91 ± 0.78
- RDSGLVGIPLTRTRIVKLST — within error, -0.35 ± 0.56
- RDTTTT — within error, 0.088 ± 0.33
- REDKYHIVVT — within error, -0.275 ± 0.28
- RERIECDWTGLAFGDPKVSV — within error, -0.646 ± 2.1
- RESGMTMHVVPQPLDTKTWC — within error, 0.612 ± 0.72
- RETYLALRRYSDLTFINRTL — higher, 1.21 ± 0.29
- REYETWLQSQRQNLSDLQK — within error, 0.173 ± 0.33
- RFAAFIEQGFTTKK — higher, 1.87 ± 0.14
- RFCRHEMVFVLDLNTYISVP — higher, 0.887 ± 0.26
- RFCSKRMRVLIFFGLV — within error, -0.165 ± 0.34
- RFDSFAMVYDNMWVRCLNVR — within error, -0.303 ± 0.53
- RFDYGGIESGVAGCVRVRDY — within error, 0.473 ± 0.67
- RFFPLVLGSLKYM — within error, 0.827 ± 0.7
- RFFPWQPCNPHIMPLIFWMP — within error, 0.692 ± 0.82
- RFGWISMYSCSRWHCMRNLY — higher, 1.13 ± 0.19
- RFIVM — within error, 0.304 ± 0.78
- RFLGIRTATMDMGSKERMWV — within error, 0.601 ± 0.44
- RFLRAPGLCSVCSCE — within error, -0.729 ± 0.85
- RFNREFMSSSVLRSWNDGYG — lower, -0.635 ± 0.62
- RFRKHRFVVLLCYWCLVFRE — within error, 0.766 ± 1.2
- RFSSQTFY — within error, -1.08 ± 2.4
- RFSWMQLWCECVLHY — within error, -0.162 ± 0.3
- RFWAACSFTDGR — higher, 1.71 ± 0.13
- RFYTYQNDVAGSDDKFSMLC — within error, -0.232 ± 0.24
- RGCRSCAFLIPGLVLCWWKE — within error, 0.069 ± 0.62
- RGFLRRHGGKGFNVLQAVGR — within error, 1.16 ± 0.72
- RGIAVWCTN — within error, 0.286 ± 0.97
- RGLQNCASSTVRESGR — within error, 0.009 ± 1
- RGNLGLDLWICSGYRMVMFQ — lower, -0.784 ± 0.3
- RGRPLLGRMRFSSAGRAAFW — within error, -0.418 ± 1.5
- RGSKVFSSDALVSRLARRVG — within error, -0.462 ± 0.5
- RGSWIPVKQRLKVPQRDGLG — within error, 0.207 ± 0.28
- RGVYNDSMERMPDNCSFYNK — within error, -0.641 ± 1.5
- RGYLMHMTVAKILSVVKKRA — within error, -2.16 ± 2.7
- RHGKASSSEWNAYRARDRGV — within error, 0.761 ± 0.82
- RHIVFDRPSISFWLKSRKRR — within error, 0.501 ± 0.64

In the case of QTMVTLGSKLIYDESGIVMV, the amyloid nucleation score is reported as “inactive”.
In the case of QVRSSDSGLVNHFVNE, the amyloid nucleation score is reported as “inactive”.
With REGWLITWRFNSW the amyloid nucleation score was “inactive”.
With RFLVFC the amyloid nucleation score was “inactive”.
With RFTLCCRMNGLVRYMSEN the amyloid nucleation score was “inactive”.
For RGDLTPDARSYGPCSIHRWR, the amyloid nucleation score was “inactive”.
